The target of test [1] is T1, Biotin-FcγRIIB (human FcγRIIB, Sino Biological) (human, UniProt P31994 43-217, limits assumed, biotin-labeled).
T1 construct: Used at 1 µg/ml with Streptavidin-APC for flow cytometry and sorting; also called CD32b
T1 sequence (looked up): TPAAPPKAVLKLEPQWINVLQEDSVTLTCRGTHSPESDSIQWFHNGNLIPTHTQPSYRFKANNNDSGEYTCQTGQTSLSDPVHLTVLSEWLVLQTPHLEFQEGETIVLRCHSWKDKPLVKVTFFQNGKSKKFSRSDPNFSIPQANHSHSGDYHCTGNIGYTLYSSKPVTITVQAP
As to the kind of experiment: NGS after FACS sort of 3T3-displayed Library4 for biotin-FcγRIIB binding.

Test [2] concerns the target T2, Biotin-FcγRIIB (human, UniProt P31994 43-217, limits assumed, biotin-labelled).
T2 construct: Bought, biotin-labelled; used at 1 µg/ml for staining and sorting; also called human FcγRIIB; CD32b
T2 sequence (looked up): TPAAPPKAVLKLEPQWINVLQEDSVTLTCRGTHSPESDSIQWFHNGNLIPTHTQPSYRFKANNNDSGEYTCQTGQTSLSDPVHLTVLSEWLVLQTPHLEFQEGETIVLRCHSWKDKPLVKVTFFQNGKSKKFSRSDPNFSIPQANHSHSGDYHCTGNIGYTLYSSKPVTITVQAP
Kind of test: FACS sorting of displayed Fc library on biotin-FcγRIIB, NGS; reference P271G.

Test [3] deals with T2, Biotin-FcγRIIB. Kind of test: FACS sorting of displayed Fc library on biotin-FcγRIIB, NGS.

Six molecules from patent US20230220042A1 (SHANGHAI JIAO TONG UNIVERSITY SCHOOL OF MEDICINE, published 2023) can be followed below.

B1: human IgG2 anti-mouse CD40 surface displayed antibody, L328E/I332T (antibody, name in EU numbering)
light chain (with the P2A rest): DTVLTQSPALAVSPGERVTISCRASDSVSTLMHWYQQKPGQQPKLLIYLASHLESGVPARFSGSGSGTDFTLTIDPVEADDTATYYCQQSWNDPWTFGGGTKLELKRTVAAPSVFIFPPSDEQLKSGTASVVCLLNNFYPREAKVQWKVDNALQSGNSQESVTEQDSKDSTYSLSSTLTLSKADYEKHKVYACEVTHQGLSSPVTKSFNRGECGSGATNFSLLKQAGDVEENPG
heavy chain: EVQLVESDGGLVQPGRSLKLPCAASGFTFSDYYMAWVRQAPTKGLEWVASISYDGSSTYYRDSVKGRFTISRDNAKSTLYLQMDSLRSEDTATYYCGRHSSYFDYWGQGVMVTVSSASTKGPSVFPLAPCSRSTSESTAALGCLVKDYFPEPVTVSWNSGALTSGVHTFPAVLQSSGLYSLSSVVTVPSSNFGTQTYTCNVDHKPSNTKVDKTVERKCCVECPPCPAPPVAGPSVFLFPPKPKDTLMISRTPEVTCVVVDVSHEDPEVQFNWYVDGVEVHNAKTKPREEQFNSTFRVVSVLTVVHQDWLNGKEYKCKVSNKGEPAPTEKTISKTKGQPREPQVYTLPPSREEMTKNQVSLTCLVKGFYPSDIAVEWESNGQPENNYKTTPPMLDSDGSFFLYSKLTVDKSRWQQGNVFSCSVMHEALHNHYTQKSLSLSPGKLEPPPSTVSNMATVAVLVVLGAAIVTGAVVAFVMKMRRRNTGGKGGDYALAPGSQTSDLSLPDCKVMVHDPHSLA
notes: m1 with these Fc mutations (Eu numbering); copies: 2 + 2
Take B1: in test [1], the “Enrichment factor (percentage after sorting/percentage before sorting)” value worked out at 55.1 and the “Increased factor (enrichment factor/wild-type enrichment factor)” value was determined as 36.9.

B2: human IgG2 anti-mouse CD40 surface displayed antibody, L328F (antibody, name in EU numbering)
light chain (with the P2A rest): DTVLTQSPALAVSPGERVTISCRASDSVSTLMHWYQQKPGQQPKLLIYLASHLESGVPARFSGSGSGTDFTLTIDPVEADDTATYYCQQSWNDPWTFGGGTKLELKRTVAAPSVFIFPPSDEQLKSGTASVVCLLNNFYPREAKVQWKVDNALQSGNSQESVTEQDSKDSTYSLSSTLTLSKADYEKHKVYACEVTHQGLSSPVTKSFNRGECGSGATNFSLLKQAGDVEENPG
heavy chain: EVQLVESDGGLVQPGRSLKLPCAASGFTFSDYYMAWVRQAPTKGLEWVASISYDGSSTYYRDSVKGRFTISRDNAKSTLYLQMDSLRSEDTATYYCGRHSSYFDYWGQGVMVTVSSASTKGPSVFPLAPCSRSTSESTAALGCLVKDYFPEPVTVSWNSGALTSGVHTFPAVLQSSGLYSLSSVVTVPSSNFGTQTYTCNVDHKPSNTKVDKTVERKCCVECPPCPAPPVAGPSVFLFPPKPKDTLMISRTPEVTCVVVDVSHEDPEVQFNWYVDGVEVHNAKTKPREEQFNSTFRVVSVLTVVHQDWLNGKEYKCKVSNKGFPAPIEKTISKTKGQPREPQVYTLPPSREEMTKNQVSLTCLVKGFYPSDIAVEWESNGQPENNYKTTPPMLDSDGSFFLYSKLTVDKSRWQQGNVFSCSVMHEALHNHYTQKSLSLSPGKLEPPPSTVSNMATVAVLVVLGAAIVTGAVVAFVMKMRRRNTGGKGGDYALAPGSQTSDLSLPDCKVMVHDPHSLA
notes: m1 with this Fc mutation (Eu numbering); copies: 2 + 2
On to B2, for which, in test [1], the “Enrichment factor (percentage after sorting/percentage before sorting)” value is 563 and the “Increased factor (enrichment factor/wild-type enrichment factor)” value stood at 377.

B3: human IgG2 anti-mouse CD40 surface displayed antibody, L328W (antibody, name in EU numbering)
light chain (with the P2A rest): DTVLTQSPALAVSPGERVTISCRASDSVSTLMHWYQQKPGQQPKLLIYLASHLESGVPARFSGSGSGTDFTLTIDPVEADDTATYYCQQSWNDPWTFGGGTKLELKRTVAAPSVFIFPPSDEQLKSGTASVVCLLNNFYPREAKVQWKVDNALQSGNSQESVTEQDSKDSTYSLSSTLTLSKADYEKHKVYACEVTHQGLSSPVTKSFNRGECGSGATNFSLLKQAGDVEENPG
heavy chain: EVQLVESDGGLVQPGRSLKLPCAASGFTFSDYYMAWVRQAPTKGLEWVASISYDGSSTYYRDSVKGRFTISRDNAKSTLYLQMDSLRSEDTATYYCGRHSSYFDYWGQGVMVTVSSASTKGPSVFPLAPCSRSTSESTAALGCLVKDYFPEPVTVSWNSGALTSGVHTFPAVLQSSGLYSLSSVVTVPSSNFGTQTYTCNVDHKPSNTKVDKTVERKCCVECPPCPAPPVAGPSVFLFPPKPKDTLMISRTPEVTCVVVDVSHEDPEVQFNWYVDGVEVHNAKTKPREEQFNSTFRVVSVLTVVHQDWLNGKEYKCKVSNKGWPAPIEKTISKTKGQPREPQVYTLPPSREEMTKNQVSLTCLVKGFYPSDIAVEWESNGQPENNYKTTPPMLDSDGSFFLYSKLTVDKSRWQQGNVFSCSVMHEALHNHYTQKSLSLSPGKLEPPPSTVSNMATVAVLVVLGAAIVTGAVVAFVMKMRRRNTGGKGGDYALAPGSQTSDLSLPDCKVMVHDPHSLA
notes: m1 with this Fc mutation (Eu numbering); Not the anti-human OX40 antibody Mut_1, which carries the same Fc mutation; copies: 2 + 2
For the molecule B3, in test [1], the “Enrichment factor (percentage after sorting/percentage before sorting)” value stood at 33.2 and the “Increased factor (enrichment factor/wild-type enrichment factor)” value came out at 22.2.

B4: human IgG2 anti-mouse CD40 surface displayed antibody, L328Y (antibody, name in EU numbering)
light chain (with the P2A rest): DTVLTQSPALAVSPGERVTISCRASDSVSTLMHWYQQKPGQQPKLLIYLASHLESGVPARFSGSGSGTDFTLTIDPVEADDTATYYCQQSWNDPWTFGGGTKLELKRTVAAPSVFIFPPSDEQLKSGTASVVCLLNNFYPREAKVQWKVDNALQSGNSQESVTEQDSKDSTYSLSSTLTLSKADYEKHKVYACEVTHQGLSSPVTKSFNRGECGSGATNFSLLKQAGDVEENPG
heavy chain: EVQLVESDGGLVQPGRSLKLPCAASGFTFSDYYMAWVRQAPTKGLEWVASISYDGSSTYYRDSVKGRFTISRDNAKSTLYLQMDSLRSEDTATYYCGRHSSYFDYWGQGVMVTVSSASTKGPSVFPLAPCSRSTSESTAALGCLVKDYFPEPVTVSWNSGALTSGVHTFPAVLQSSGLYSLSSVVTVPSSNFGTQTYTCNVDHKPSNTKVDKTVERKCCVECPPCPAPPVAGPSVFLFPPKPKDTLMISRTPEVTCVVVDVSHEDPEVQFNWYVDGVEVHNAKTKPREEQFNSTFRVVSVLTVVHQDWLNGKEYKCKVSNKGYPAPIEKTISKTKGQPREPQVYTLPPSREEMTKNQVSLTCLVKGFYPSDIAVEWESNGQPENNYKTTPPMLDSDGSFFLYSKLTVDKSRWQQGNVFSCSVMHEALHNHYTQKSLSLSPGKLEPPPSTVSNMATVAVLVVLGAAIVTGAVVAFVMKMRRRNTGGKGGDYALAPGSQTSDLSLPDCKVMVHDPHSLA
notes: as for B2
With B4, in test [1], the “Enrichment factor (percentage after sorting/percentage before sorting)” value turned out to be 3.38 and the “Increased factor (enrichment factor/wild-type enrichment factor)” value is 2.26.

B5: human IgG2 anti-mouse CD40 surface displayed antibody, Fc mutant P271G/P329S (antibody, name in EU numbering)
light chain (with the P2A rest): DTVLTQSPALAVSPGERVTISCRASDSVSTLMHWYQQKPGQQPKLLIYLASHLESGVPARFSGSGSGTDFTLTIDPVEADDTATYYCQQSWNDPWTFGGGTKLELKRTVAAPSVFIFPPSDEQLKSGTASVVCLLNNFYPREAKVQWKVDNALQSGNSQESVTEQDSKDSTYSLSSTLTLSKADYEKHKVYACEVTHQGLSSPVTKSFNRGECGSGATNFSLLKQAGDVEENPG
heavy chain: EVQLVESDGGLVQPGRSLKLPCAASGFTFSDYYMAWVRQAPTKGLEWVASISYDGSSTYYRDSVKGRFTISRDNAKSTLYLQMDSLRSEDTATYYCGRHSSYFDYWGQGVMVTVSSASTKGPSVFPLAPCSRSTSESTAALGCLVKDYFPEPVTVSWNSGALTSGVHTFPAVLQSSGLYSLSSVVTVPSSNFGTQTYTCNVDHKPSNTKVDKTVERKCCVECPPCPAPPVAGPSVFLFPPKPKDTLMISRTPEVTCVVVDVSHEDGEVQFNWYVDGVEVHNAKTKPREEQFNSTFRVVSVLTVVHQDWLNGKEYKCKVSNKGLSAPIEKTISKTKGQPREPQVYTLPPSREEMTKNQVSLTCLVKGFYPSDIAVEWESNGQPENNYKTTPPMLDSDGSFFLYSKLTVDKSRWQQGNVFSCSVMHEALHNHYTQKSLSLSPGKLEPPPSTVSNMATVAVLVVLGAAIVTGAVVAFVMKMRRRNTGGKGGDYALAPGSQTSDLSLPDCKVMVHDPHSLA
notes: as m1; positions are Eu numbers; copies: 2 + 2
On to B5, for which, in the test with Biotin-FcγRIIB [2], the “Increased factor 2 c Site 1 (combined/point mutation)” value was 13.1. Also, in the test with Biotin-FcγRIIB [3], the “Enrichment factor (after/before sorting)” value is 46.2 and the “Increased factor a (enrichment factor/wild-type enrichment factor)” value is 61.8.

B6: human IgG2 anti-mouse CD40 surface displayed antibody, Fc mutant P271G/P331C (antibody, name in EU numbering)
light chain (with the P2A rest): DTVLTQSPALAVSPGERVTISCRASDSVSTLMHWYQQKPGQQPKLLIYLASHLESGVPARFSGSGSGTDFTLTIDPVEADDTATYYCQQSWNDPWTFGGGTKLELKRTVAAPSVFIFPPSDEQLKSGTASVVCLLNNFYPREAKVQWKVDNALQSGNSQESVTEQDSKDSTYSLSSTLTLSKADYEKHKVYACEVTHQGLSSPVTKSFNRGECGSGATNFSLLKQAGDVEENPG
heavy chain: EVQLVESDGGLVQPGRSLKLPCAASGFTFSDYYMAWVRQAPTKGLEWVASISYDGSSTYYRDSVKGRFTISRDNAKSTLYLQMDSLRSEDTATYYCGRHSSYFDYWGQGVMVTVSSASTKGPSVFPLAPCSRSTSESTAALGCLVKDYFPEPVTVSWNSGALTSGVHTFPAVLQSSGLYSLSSVVTVPSSNFGTQTYTCNVDHKPSNTKVDKTVERKCCVECPPCPAPPVAGPSVFLFPPKPKDTLMISRTPEVTCVVVDVSHEDGEVQFNWYVDGVEVHNAKTKPREEQFNSTFRVVSVLTVVHQDWLNGKEYKCKVSNKGLPACIEKTISKTKGQPREPQVYTLPPSREEMTKNQVSLTCLVKGFYPSDIAVEWESNGQPENNYKTTPPMLDSDGSFFLYSKLTVDKSRWQQGNVFSCSVMHEALHNHYTQKSLSLSPGKLEPPPSTVSNMATVAVLVVLGAAIVTGAVVAFVMKMRRRNTGGKGGDYALAPGSQTSDLSLPDCKVMVHDPHSLA
notes: as for B5
Take B6: the “Increased factor 2 c Site 1 (combined/point mutation)” value with Biotin-FcγRIIB [2] was determined as 39.6. Besides, in the test with Biotin-FcγRIIB [3], the “Enrichment factor (after/before sorting)” value is 140 and the “Increased factor a (enrichment factor/wild-type enrichment factor)” value is 187.
